In patent US20260069689A1 (Regeneron, published 2026):

How the values were obtained:
[1] = biological target: T1, SARS-COV-2 RBD extracellular domain expressed with a C-terminal mouse IgG2a Fc (SARS-CoV-2); assay: Biacore SPR, mAb captured on anti-hFc, 25 C
[2] = biological target: T2, SARS-CoV2 Spike ecto foldon Trimer expressed with a C-terminal myc-myc-hexahistidine (SARS-CoV-2, UniProt P0DTC2 14-1213); assay: SPR Biacore, mAb captured by anti-hFc, 37C
T2 construct: extracellular domain

[3] = biological target: T2, SARS-CoV2 Spike ecto foldon Trimer …; assay: SPR Biacore, mAb captured by anti-hFc, 25C
[4] = biological target: T1, SARS-COV-2 RBD extracellular domain …; assay: Biacore SPR, mAb captured on anti-hFc, 37 C

| Binder | Kd [1] | koff [1] | kon [1] | t½ [1] | Kd [2] | koff [2] | kon [2] | t½ [2] | Kd [3] | koff [3] | kon [3] | t½ [3] | Kd [4] | koff [4] | kon [4] | t½ [4] |
| --- | --- | --- | --- | --- | --- | --- | --- | --- | --- | --- | --- | --- | --- | --- | --- | --- |
| mAb14258 (antibody, V domains shown) VH: QLQLQESGPGLVKPSETLSLICTGSGDSISSSHYYWGWIRQPPGKGLEWIGSTYFSGSTYYNPSLKSRVSISVDTSKNQVSLKLISVTAADTAVYYCAREMGATLGDYWGPGTLVTVSS VL: QSVLTQPPSASGTPGQRVTISCSGSSSNIGNNYVYWYQQFPGTTPRLLIYRNNERPSGVPDRFSGSKSGTSASLVISGLRSEDEADYYCAAWDDSLSAHYVFGTGTKVTVLG | 3.04 nM | 0.000109 s⁻¹ | 35600 M⁻¹ s⁻¹ | 1.77 h |  |  |  |  |  |  |  |  |  |  |  |  |
| mAb15170 (antibody, V domains shown) VH: EVQLVESGGGLVQPGGSLRLSCAATGITVSSNYMSWVRQAPGKGLEWVSLIYSGGSTFYADSVKGRFTISRHNSKNTLYLQMSSLRAEDTAVYYCARDLVDFGMDVWGQGTTVTVSS VL: DIQLTQSPSSLSASVGDRVTITCRASQGISNYLAWYQQKPGKAPKLLIYAASTLQSGVPSRFSGSGSGTDFTLTISSLQPEDFGTYYCQQLNSDSPTFGQGTKVEIKR |  |  |  |  | 0.0118 nM | 1e-05 s⁻¹ | 846000 M⁻¹ s⁻¹ | 19.2 h | 0.11 nM | 1.29e-05 s⁻¹ | 120000 M⁻¹ s⁻¹ | 14.9 h |  |  |  |  |
| mAb15150 (antibody, V domains shown) VH: EVQLVETGGGLIQPGGSLRLSCAAPGFIVSSNYMSWVRQAPGKGLEWVSLLYPGGSTYYADSVKGRFTISRDNSKNTLYLQMNSLRADDTAVYYCARVLPIVEDHFDYWGQGTLVTVSS VL: DIQLTQSPSFLSASVGDRVTITCRASQGMSSYLAWYQKKPGKAPKLLIYGATILQSGVPSRFSGSGSGTEFTLTISSLQPEDFATYYCQQLNSDPLYMYTFGQGTKLEIKR [mAb15150, listing 1 of 2 here] |  |  |  |  | 0.0202 nM | 3.42e-05 s⁻¹ | 1.68e+06 M⁻¹ s⁻¹ | 5.63 h | ≤ 0.0315 nM | ≤ 1e-05 s⁻¹ | 317000 M⁻¹ s⁻¹ | 19.2 h |  |  |  |  |
| mAb15150 (antibody, V domains shown) VH: EVQLVETGGGLIQPGGSLRLSCAAPGFIVSSNYMSWVRQAPGKGLEWVSLLYPGGSTYYADSVKGRFTISRDNSKNTLYLQMNSLRADDTAVYYCARVLPIVEDHFDYWGQGTLVTVSS VL: DIQLTQSPSFLSASVGDRVTITCRASQGMSSYLAWYQKKPGKAPKLLIYGATILQSGVPSRFSGSGSGTEFTLTISSLQPEDFATYYCQQLNSDPLYMYTFGQGTKLEIKR [mAb15150, listing 2 of 2 here] |  |  |  |  |  |  |  |  |  |  |  |  | 0.0296 nM | 2.8e-05 s⁻¹ | 946000 M⁻¹ s⁻¹ | 6.88 h |
| mAb13459 (antibody, V domains shown) VH: EVQLVESGGGLVQPGRSLRLSCAASGFTFDDYAMHWVRQAPGKGLEWVSGISWNSGSIGYADSVKGRFTISRDNAKNSLYLQMNSLRAEDTALYYCAKDIGITTPYWGQGTLVTVSS VL: AIQMTQSPSSLSASVGDRVTITCRASQDIRNDLGWYQQKPGKAPKLLIYSASSLQTGVPSRFSGSGSGTDFTLTISSLHPEDFATYYCLQDYNYVWTFGQGTKVEIKR |  |  |  |  |  |  |  |  |  |  |  |  | 0.0939 nM | 9.24e-05 s⁻¹ | 985000 M⁻¹ s⁻¹ | 2.08 h |
| mAb14294 (antibody, V domains shown) VH: EVQLVESGGGLVQPGGSLRLSCAASGFTFSNHWMDWVRQAPGKGLVWVSRINSDGSSTDYADSVRGRFTMSRDNAKNTLYLQMSSLRAEDTAVYYCAREGMIFGAVIIPGWYFDLWGRGALVTVSS VL: EIVLTQSPGTLSLSPGERATLSCRASQSVSSSQLAWYQQKPGQAPRLLIYGASSRATGIPDRFSGSGSGTDFTLTISRLEPEDFAVYYCQQYDSFGQGTKLEIKR | 0.0294 nM | 2.68e-05 s⁻¹ | 911000 M⁻¹ s⁻¹ | 7.17 h |  |  |  |  |  |  |  |  | 0.0386 nM | 3.5e-05 s⁻¹ | 906000 M⁻¹ s⁻¹ | 5.5 h |
| mAb14284 (antibody, V domains shown) VH: QITLKESGPTLVKPTQTLTLTCTFSGFSFSTSGVGVGWIRQPPGKTLEWLALIYWDDDKRYSPSLKSRLTITKDTSKNQVVLTMTNMDPVDTATYFCAHHGIPTIFGYWGQGALVTVSS VL: QSALTQPASVSGSPGQSITISCTGTSSDLGVFNYVSWYQQHPGKAPKLMIYEVTNRPSGVSNRFSGSKSGNTASLTISGLQAEDEADYYCSSYTTSSTVFGGGTKLTVLG [mAb14284, listing 1 of 2 here] |  |  |  |  | 0.0251 nM | 2.05e-05 s⁻¹ | 814000 M⁻¹ s⁻¹ | 9.41 h | 0.0161 nM | 1.31e-05 s⁻¹ | 812000 M⁻¹ s⁻¹ | 14.7 h |  |  |  |  |
| mAb14235 (antibody, V domains shown) VH: QITLKESGPTLVKPTQTLTLTCTFSGFSLNTGGVGVGWIRQPPGNALEWLALIYWDDDKRYNPSLKTRLTISKDTSKNQVVLTMTNMDPVDTATYFCAHLTIAVIVDFWGQGTLVTVSS VL: QSALTQPASVSGSPGQSITISCTATSSDVGTYNYVSWFQHHPGKAPKLMIYEVTNRPSGVSNRFSGSKSGNTASLTISGLQAEDEADYYCSSYTTTSIVFGGGTKLTVLG | 0.0627 nM | 6.89e-05 s⁻¹ | 1.1e+06 M⁻¹ s⁻¹ | 2.79 h |  |  |  |  |  |  |  |  | 0.0612 nM | 6.68e-05 s⁻¹ | 1.09e+06 M⁻¹ s⁻¹ | 2.88 h |
| mAb14284 (antibody, V domains shown) VH: QITLKESGPTLVKPTQTLTLTCTFSGFSFSTSGVGVGWIRQPPGKTLEWLALIYWDDDKRYSPSLKSRLTITKDTSKNQVVLTMTNMDPVDTATYFCAHHGIPTIFGYWGQGALVTVSS VL: QSALTQPASVSGSPGQSITISCTGTSSDLGVFNYVSWYQQHPGKAPKLMIYEVTNRPSGVSNRFSGSKSGNTASLTISGLQAEDEADYYCSSYTTSSTVFGGGTKLTVLG [mAb14284, listing 2 of 2 here] | 0.0255 nM | 2.12e-05 s⁻¹ | 831000 M⁻¹ s⁻¹ | 9.08 h |  |  |  |  |  |  |  |  | 0.027 nM | 2.24e-05 s⁻¹ | 830000 M⁻¹ s⁻¹ | 8.6 h |
| mAb14283 (antibody, V domains shown) VH: QVQLQESGPGLVKPSGTLSLTCDVSGGSISSNNWWSWVRQRPGKGLQWIGEIYHNENTNYNPSLKSRVIMSIDKSKNQFSLKLTSVTAADTAVYYCARGDVLDWFDPWGQGTLVTVSS VL: QSALTQPASVSGSPGQSTTISCTGTSSDVGGYNYVSWYQQYPGKAPKLMIYDVTNRPSGVSHRFSGSKSGNTASLTISGLQAEDEADYYCSSYTSSSTVIFGGGTKLTVLG | 0.0524 nM | 8.14e-05 s⁻¹ | 1.55e+06 M⁻¹ s⁻¹ | 2.37 h |  |  |  |  |  |  |  |  | 0.0631 nM | 9.59e-05 s⁻¹ | 1.52e+06 M⁻¹ s⁻¹ | 2.01 h |
| mAb15151 (antibody, V domains shown) VH: QVQLVESGGGVVQPGRSLRLSCAASGFVFNSYGMHWVRQAPGKGLEWVAVLWYEGSKNYYADSVKGRFTISRDNSKNTLYLQMNSLRAEDTAVYYCARHGSGSFFGYYLDYWGQGTLVTVSS VL: DIQMTQSPSSLSASVGDRVTITCRASHNINDFLNWYQQKPGKAPRLLIYAASSLQSGVPSRFSGSGSGTDFTLTISSLQPEDFATYYCQESYTTPPTFGQGTKLEIKR |  |  |  |  | 0.129 nM | 0.000248 s⁻¹ | 1.92e+06 M⁻¹ s⁻¹ | 0.777 h | 0.187 nM | 6.26e-05 s⁻¹ | 335000 M⁻¹ s⁻¹ | 3.08 h |  |  |  |  |
| mAb14289 (antibody, V domains shown) VH: QVQLVQSGPEVKKPGASVKVSCKASGYTFTSYAISWVRQAPGQGLEWMGWISAYNGNTNYAQKLQGRVTMTTDTFTSTAYMELRSLRSDDTAVYYCAVPADHITFDYWGQGTLVTVSS VL: EIVLTQSPGTLSLSPGERATLSCRASQSVSSYLAWYQQKPGQAPRLLIHGASSRATGIPDRFSGSGSGTDFTLTISRLEPEDFAVYYCQQYGSSFLTFGGGTKVEIKR | 0.0628 nM | 8.95e-05 s⁻¹ | 1.43e+06 M⁻¹ s⁻¹ | 2.15 h |  |  |  |  |  |  |  |  | 0.0907 nM | 0.000128 s⁻¹ | 1.41e+06 M⁻¹ s⁻¹ | 1.5 h |
| mAb14312 (antibody, V domains shown) VH: EVQLVESGGGLVQPGGSLRLSCAASGFTVSRSYMTWVRQAPGKGLEWVSVIFTGGRTDHADSVKGRFTISRHNSKNTLYLQMNSLRTEDTAVYYCARVAIVGATGAFDIWGQGTMVTVSS VL: QSVLTQPPSVSGAPGQRVTISCTGSSSNIGAGDDVHWYQQLPGTAPKLLIYGNSNRPSGVPDRFSGSKSGTSASLAITGLQAEDEADYYCQSYDSSLSGSVVFGGGTKLTVLG [mAb14312, listing 1 of 2 here] |  |  |  |  | 0.0563 nM | 5.44e-05 s⁻¹ | 966000 M⁻¹ s⁻¹ | 3.54 h | 0.0272 nM | 5.24e-05 s⁻¹ | 1.93e+06 M⁻¹ s⁻¹ | 3.67 h |  |  |  |  |
| mAb14312 (antibody, V domains shown) VH: EVQLVESGGGLVQPGGSLRLSCAASGFTVSRSYMTWVRQAPGKGLEWVSVIFTGGRTDHADSVKGRFTISRHNSKNTLYLQMNSLRTEDTAVYYCARVAIVGATGAFDIWGQGTMVTVSS VL: QSVLTQPPSVSGAPGQRVTISCTGSSSNIGAGDDVHWYQQLPGTAPKLLIYGNSNRPSGVPDRFSGSKSGTSASLAITGLQAEDEADYYCQSYDSSLSGSVVFGGGTKLTVLG [mAb14312, listing 2 of 2 here] | 0.0334 nM | 5.6e-05 s⁻¹ | 1.68e+06 M⁻¹ s⁻¹ | 3.44 h |  |  |  |  |  |  |  |  | 0.0347 nM | 5.8e-05 s⁻¹ | 1.67e+06 M⁻¹ s⁻¹ | 3.32 h |
| mAb15166 (antibody, V domains shown) VH: EVQLVESGGGLVQPGGSLRLSCAASGFTVTSNYMSWVRQAPGKGLEWVSAIYSGESTYYADSVKGRFTISRDSSKNTLYLQMNSLRVEDTAVYYCASIHDYSNYVGGFDPWGQGTLVTVSS VL: QSALTQPASVSGSPGQSITISCTGPSSDFGSYNLVSWYQQHPGKAPKLMIYEGTKRPSGVSNRFSGSKSGNTASLTISGLQAEDEADYYCSSYAGSSTWVFGGGTKLTVLG |  |  |  |  | 0.054 nM | 8.32e-05 s⁻¹ | 1.54e+06 M⁻¹ s⁻¹ | 2.31 h | 0.63 nM | 0.000174 s⁻¹ | 276000 M⁻¹ s⁻¹ | 1.1 h |  |  |  |  |
